Source: paper PMC3375269 (2012)

Experiments:
alpha1A-adrenoceptor = target: T1, alpha1A-adrenoceptor (Homo sapiens, UniProt P35348); assay: [3H]-Prazosin equilibrium inhibition binding
T1 chain: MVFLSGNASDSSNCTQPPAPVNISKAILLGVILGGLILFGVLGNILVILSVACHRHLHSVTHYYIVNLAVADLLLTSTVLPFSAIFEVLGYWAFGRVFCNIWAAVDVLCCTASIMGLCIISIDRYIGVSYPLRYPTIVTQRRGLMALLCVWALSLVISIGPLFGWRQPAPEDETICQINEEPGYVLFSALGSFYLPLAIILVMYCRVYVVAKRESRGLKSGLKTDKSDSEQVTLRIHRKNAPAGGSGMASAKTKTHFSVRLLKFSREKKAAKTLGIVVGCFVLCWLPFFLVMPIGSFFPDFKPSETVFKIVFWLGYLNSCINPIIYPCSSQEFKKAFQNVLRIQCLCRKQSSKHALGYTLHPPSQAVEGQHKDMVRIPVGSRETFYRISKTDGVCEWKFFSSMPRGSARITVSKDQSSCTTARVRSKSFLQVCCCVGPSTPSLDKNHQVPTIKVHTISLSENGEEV

[1] = target: T2, Muscarinic acetylcholine receptor M4 (Homo sapiens, UniProt P08173); assay: [3H]-NMS equilibrium inhibition binding
T2 chain: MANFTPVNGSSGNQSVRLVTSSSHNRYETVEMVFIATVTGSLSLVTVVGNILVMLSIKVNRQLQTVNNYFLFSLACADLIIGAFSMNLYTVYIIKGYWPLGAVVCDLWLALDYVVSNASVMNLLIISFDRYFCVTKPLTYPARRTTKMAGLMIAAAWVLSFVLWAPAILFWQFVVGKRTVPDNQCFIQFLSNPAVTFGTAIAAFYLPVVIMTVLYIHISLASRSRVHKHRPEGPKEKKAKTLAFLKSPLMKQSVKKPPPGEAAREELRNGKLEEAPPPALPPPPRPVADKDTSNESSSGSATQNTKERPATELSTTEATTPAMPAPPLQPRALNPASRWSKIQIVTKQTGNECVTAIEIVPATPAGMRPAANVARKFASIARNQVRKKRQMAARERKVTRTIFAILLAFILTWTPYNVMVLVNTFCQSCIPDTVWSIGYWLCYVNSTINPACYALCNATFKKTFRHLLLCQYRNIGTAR

[2] = target: T3, Muscarinic acetylcholine receptor M1 (Homo sapiens, UniProt P11229); assay: [3H]-NMS equilibrium inhibition binding
T3 chain: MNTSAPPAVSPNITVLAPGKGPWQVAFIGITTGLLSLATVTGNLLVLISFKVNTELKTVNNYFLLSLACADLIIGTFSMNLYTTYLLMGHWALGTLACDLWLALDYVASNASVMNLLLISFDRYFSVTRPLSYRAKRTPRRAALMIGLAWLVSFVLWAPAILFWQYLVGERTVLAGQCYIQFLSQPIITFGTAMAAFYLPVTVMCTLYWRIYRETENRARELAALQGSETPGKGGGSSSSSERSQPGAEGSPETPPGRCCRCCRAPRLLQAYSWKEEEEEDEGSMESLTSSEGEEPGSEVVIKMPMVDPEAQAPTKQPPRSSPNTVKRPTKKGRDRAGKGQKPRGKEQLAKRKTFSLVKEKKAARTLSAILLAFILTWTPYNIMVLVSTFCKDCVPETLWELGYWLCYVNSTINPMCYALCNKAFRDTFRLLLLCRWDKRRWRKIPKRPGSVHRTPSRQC

B1: Muscarinic toxin 7 (MT7) (protein)
chain: LTCVKSNSIWFPTSEDCPDGQNLCFKRWQYISPRMYDFTRGCAATCPKAEYRDVINCCGTDKCNK
Binder B1 has a Ki (alpha1A-adrenoceptor) greater than 20000 nM, a Ki [1] of 13000 nM and a Ki [2] of 0.034 nM.

B2: Muscarinic toxin 1 (MT1) (protein)
chain: LTCVTSKSIFGITTENCPDGQNLCFKKWYYIVPRYSDITWGCAATCPKPTNVRETIRCCETDKCNE
B2 showed a Ki (alpha1A-adrenoceptor) of 62 nM, a Ki [1] of 310 nM and a Ki [2] of 24 nM.
